Legend:
[1] = molecular target: T1, RBMS1 (58-224) (Homo sapiens) (UniProt P29558); assay: ITC; details: ITC: 20 mM sodium phosphate pH 7.1, 50 mM NaCl, 303 K, 0.1 mM protein in cell, 1-1.5 mM DNA in syringe; NMR: 20 mM sodium phosphate pH 7.1, 100 mM NaCl, 5% D2O
T1 sequence: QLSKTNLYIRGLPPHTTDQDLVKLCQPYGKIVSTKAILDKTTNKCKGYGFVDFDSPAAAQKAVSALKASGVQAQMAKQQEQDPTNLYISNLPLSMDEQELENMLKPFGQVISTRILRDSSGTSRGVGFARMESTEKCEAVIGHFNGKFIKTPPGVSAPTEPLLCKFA

RBMS1 (58-224) [2] = molecular target: T2, RBMS1 (58-224) (Homo sapiens, UniProt P29558 62-223); assay: ITC; 20 mM sodium phosphate pH 7.1, 50 mM NaCl, 303 K (30 C); 0.1 mM protein in cell, 1-1.5 mM DNA in syringe; details: protein: recombinant; tags: N-term GAMG left after TEV cleavage of 6xHis
T2 sequence: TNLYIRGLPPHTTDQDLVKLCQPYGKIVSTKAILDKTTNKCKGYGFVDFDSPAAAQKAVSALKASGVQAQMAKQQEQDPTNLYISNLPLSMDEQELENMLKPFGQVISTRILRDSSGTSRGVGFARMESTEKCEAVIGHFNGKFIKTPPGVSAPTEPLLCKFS

RBMS1 (58-224) [3] = molecular target: T3, RBMS1 (58-224) (Homo sapiens, UniProt P29558 58-224); assay: ITC; ITC: 20 mM sodium phosphate pH 7.1, 50 mM NaCl, 303 K, 0.1 mM protein in cell, 1-1.5 mM DNA in syringe; NMR: 20 mM sodium phosphate pH 7.1, 100 mM NaCl, 5% D2O; details: protein: recombinant; tags: N-term GAMG left after TEV cleavage of 6xHis; single strand
T3 sequence: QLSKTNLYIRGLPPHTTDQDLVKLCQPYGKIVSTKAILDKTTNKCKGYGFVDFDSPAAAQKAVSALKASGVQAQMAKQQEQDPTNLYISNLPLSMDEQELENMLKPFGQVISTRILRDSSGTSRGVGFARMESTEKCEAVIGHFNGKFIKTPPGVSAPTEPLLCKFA

RBMS1 (58-224) Y105S = molecular target: T4, RBMS1 (58-224) Y105S (Homo sapiens, UniProt P29558 62-223, Y105S); assay: ITC; 20 mM sodium phosphate pH 7.1, 50 mM NaCl, 303 K (30 C); 0.1 mM protein in cell, 1-1.5 mM DNA in syringe; details: protein: recombinant; tags: N-term GAMG left after TEV cleavage of 6xHis
T4 sequence: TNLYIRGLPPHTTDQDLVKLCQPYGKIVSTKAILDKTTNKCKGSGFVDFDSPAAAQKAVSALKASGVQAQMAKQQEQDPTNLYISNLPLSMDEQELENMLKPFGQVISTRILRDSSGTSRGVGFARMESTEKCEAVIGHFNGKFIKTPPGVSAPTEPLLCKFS

RBMS1 (58-224) F107L = molecular target: T5, RBMS1 (58-224) F107L (Homo sapiens, UniProt P29558 62-223, F107L); assay: as above; details: protein: recombinant; tags: N-term GAMG left after TEV cleavage of 6xHis
T5 sequence: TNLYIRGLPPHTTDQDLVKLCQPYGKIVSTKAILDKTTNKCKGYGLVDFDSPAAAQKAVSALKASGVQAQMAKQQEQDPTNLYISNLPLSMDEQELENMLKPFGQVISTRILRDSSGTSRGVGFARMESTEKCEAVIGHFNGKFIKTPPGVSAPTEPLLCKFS

RBMS1 (58-224) Q138E = molecular target: T6, RBMS1 (58-224) Q138E (Homo sapiens, UniProt P29558 62-223, Q138E); assay: as above; details: protein: recombinant; tags: N-term GAMG left after TEV cleavage of 6xHis
T6 sequence: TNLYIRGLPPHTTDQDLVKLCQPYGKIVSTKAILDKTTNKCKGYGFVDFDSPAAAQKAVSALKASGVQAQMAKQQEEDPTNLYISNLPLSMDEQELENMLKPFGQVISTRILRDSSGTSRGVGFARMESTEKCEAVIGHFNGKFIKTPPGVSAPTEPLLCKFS

RBMS1 (58-224) F185V = molecular target: T7, RBMS1 (58-224) F185V (Homo sapiens, UniProt P29558 62-223, F185V); assay: as above; details: protein: recombinant; tags: N-term GAMG left after TEV cleavage of 6xHis
T7 sequence: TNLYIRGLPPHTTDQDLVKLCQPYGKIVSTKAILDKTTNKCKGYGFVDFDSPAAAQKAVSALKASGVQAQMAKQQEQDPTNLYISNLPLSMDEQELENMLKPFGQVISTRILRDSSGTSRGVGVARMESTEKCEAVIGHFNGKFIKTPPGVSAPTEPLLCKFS

[4] = molecular target: T8, RBMS1 linker mutant Q135E/Q138E (Homo sapiens, UniProt P29558 58-224, Q135E); assay: ITC; ITC: 20 mM sodium phosphate pH 7.1, 50 mM NaCl, 303 K, 0.1 mM protein in cell, 1-1.5 mM DNA in syringe; NMR: 20 mM sodium phosphate pH 7.1, 100 mM NaCl, 5% D2O; details: protein: recombinant; tags: 6xHis removed by TEV; single strand
T8 sequence: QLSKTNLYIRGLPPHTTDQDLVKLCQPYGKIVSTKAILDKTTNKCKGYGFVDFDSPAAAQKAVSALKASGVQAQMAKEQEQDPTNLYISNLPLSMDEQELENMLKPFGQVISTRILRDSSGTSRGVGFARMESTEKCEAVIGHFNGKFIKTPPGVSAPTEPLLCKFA

RBMS1 RRM1 [5] = molecular target: T9, RBMS1 RRM1 (Homo sapiens, UniProt P29558 58-137); assay: as above; details: protein: recombinant; tags: 6xHis removed by TEV; single strand
T9 sequence: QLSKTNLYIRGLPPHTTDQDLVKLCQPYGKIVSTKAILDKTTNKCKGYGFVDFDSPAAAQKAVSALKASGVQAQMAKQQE

RBMS1 RRM2 = molecular target: T10, RBMS1 RRM2 (Homo sapiens, UniProt P29558 138-224); assay: as above; details: protein: recombinant; tags: 6xHis removed by TEV; single strand
T10 sequence: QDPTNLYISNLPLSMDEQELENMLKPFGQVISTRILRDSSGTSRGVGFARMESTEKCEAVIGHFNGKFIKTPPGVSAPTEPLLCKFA

RBMS1 RRM1 [6] = molecular target: T9, RBMS1 RRM1; assay: as above; details: protein: recombinant; tags: 6xHis removed by TEV; single strand; remark: listed apart in the source

## c-myc 21 bp promoter sequence
[1]
  Kd: 2.6 µM

## TCGTATT (ssDNA)
RBMS1 (58-224) [2]
  Kd: 7.7 µM

## TGTTATT (ssDNA) [TGTTATT (C2G)]
RBMS1 (58-224) [3]
  Kd: 15.2 µM

## ATAT (ssDNA)
RBMS1 (58-224) [2]
  binding result: no binding

## TCCCATT (ssDNA)
RBMS1 (58-224) [2]
  Kd: 8.2 µM

## TCTTATT (ssDNA)
RBMS1 (58-224) Y105S
  binding result: no binding
RBMS1 (58-224) F107L
  Kd: 142 µM
RBMS1 (58-224) Q138E
  Kd: 13.9 µM
RBMS1 (58-224) [2]
  Kd: 3.84 µM
RBMS1 (58-224) F185V
  Kd: 6.02 µM

## GTAT (ssDNA)
RBMS1 (58-224) [2]
  binding result: no binding

## TGGTACT (ssDNA)
RBMS1 (58-224) [2]
  Kd: 15.9 µM

## TCGGATG (ssDNA)
RBMS1 (58-224) [2]
  Kd: 35.5 µM

## TTTTT (ssDNA)
RBMS1 (58-224) [2]
  Kd: 79.4 µM

## TGGGATT (ssDNA)
RBMS1 (58-224) [2]
  Kd: 36.4 µM

## TCTTATT (ssDNA) [c-myc consensus TCTTATT]
[4]
  binding signal: 10 fold lower binding than wild type
RBMS1 RRM1 [5]
  Kd: 55.2 µM
RBMS1 (58-224) [3]
  Kd: 3.84 µM

## TCTTATG (ssDNA)
RBMS1 (58-224) [2]
  Kd: 19.3 µM

## TATAATT (ssDNA)
RBMS1 (58-224) [2]
  Kd: 37 µM

## TTAT (ssDNA)
RBMS1 (58-224) [2]
  binding result: no binding

## TGGTAAT (ssDNA)
RBMS1 (58-224) [2]
  Kd: 9.6 µM

## TGGTCAT (ssDNA)
RBMS1 (58-224) [2]
  Kd: 17.5 µM

## TGGTGTT (ssDNA)
RBMS1 (58-224) [2]
  Kd: 16.1 µM

## CTTTA (ssDNA)
RBMS1 (58-224) [2]
  Kd: 55.5 µM

## TCATATT (ssDNA)
RBMS1 (58-224) [2]
  Kd: 11.9 µM

## GGTAAT (ssDNA)
RBMS1 (58-224) [2]
  Kd: 14.9 µM

## TGGTATC (ssDNA)
RBMS1 (58-224) [2]
  Kd: 6.2 µM

## TGCTATT (ssDNA)
RBMS1 (58-224) [2]
  Kd: 8.69 µM

## TGGAATT (ssDNA)
RBMS1 (58-224) [2]
  Kd: 21 µM

## TGTTATT (ssDNA)
RBMS1 (58-224) [2]
  Kd: 15.2 µM

## GTTAT (ssDNA)
RBMS1 (58-224) [2]
  Kd: 81.3 µM

## TGGTTTT (ssDNA)
RBMS1 RRM2
  binding result: no binding
RBMS1 (58-224) Y105S
  Kd: 418 µM
RBMS1 (58-224) F107L
  Kd: 83.3 µM
RBMS1 (58-224) Q138E
  Kd: 18.1 µM
RBMS1 (58-224) [2]
  Kd: 4.04 µM
RBMS1 (58-224) F185V
  Kd: 22 µM

## TGGTATT (ssDNA)
RBMS1 RRM1 [6]
  binding signal: 10 fold lower affinity than RBMS1 58-224
RBMS1 RRM2
  binding result: no binding
RBMS1 (58-224) Y105S
  Kd: 151 µM
RBMS1 (58-224) F107L
  Kd: 182 µM
RBMS1 (58-224) Q138E
  Kd: 17.6 µM
RBMS1 (58-224) [2]
  Kd: 6.7 µM
RBMS1 (58-224) F185V
  Kd: 23.2 µM
